Results as given in the nanobody polyreactivity screen of Harvey et al. (2022).

assay: yeast display, Sf9 membrane polyspecificity reagent, FACS + sequencing; frameworks hold sequencing errors
How it was run: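 A synthetic nanobody library was expressed on Saccharomyces cerevisiae BJ5465 by galactose induction for 36–48 hours. The library was stained for 1 hour at 4 °C with 10% biotinylated, detergent-solubilized Sf9 membrane reagent and enriched with streptavidin microbeads before FACS. Low and high (top ~1%) gates were set on anti-HA fluorescence for expression and streptavidin fluorescence for reagent binding, and each polyreactivity label reflects the gate of origin.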

Row | Sequence | polyreactivity (PSR sort gate)
1 | QVQLVESGGGFVQAVGSLRLSCAASGSTFPRYVLGWYRQAPGTARELVAAITWRGSTNDADSVKGRFTISRDNAKNTVYLQMNSLKPEDSAVYYCAAAFFARDRKRYNYWGQGTQVTVSS | high polyreactivity
2 | QVQLVESGGGIDQAGGSLRLRCAASGSIFAYYAMGWYRQAPGKERELVAAISWNGGRTYYADSVKGRFTISRDNAKNTVYLQMNSLKPEDTAVYYCNAVRWAIYDYWGQGTQVTLSS | high polyreactivity
3 | QVQLVESGGGIVHEGGSLRLSCAASGSIFFGYAMGWYRLAPGKELELVAAISASGGLTFYADSLKGRFTISRDNAKNTVYLQMNSLKPEDPAVYYCAKRGRSTYGYDYWGQGTQVTVSS | high polyreactivity
4 | QVQLVESGGGIVQAGASLRLSCSASGFTQYPYTMGWNRHAPGKESELVAAITSSGATTYYADSVKGRFTISRDNAKNTVYLQMNRLKTEVTAVYYCAAGRAAAFGYLGQGTQVTVSS | high polyreactivity
5 | QVQLVESGGGIVQAGCSLRLSCAASGSIFSHNAKVGYRQAPGKERELVAAITKGGGRTYYADSVKGRFTISRDNAKNTVYLQMNSLKPEDNAVYYCATAGAHGRERDYWGQGTQVTVSS | high polyreactivity
6 | QVQLVESGGGIVQAGGILRLSCAASGRTLHYSAMVWYRQAPRIERELVAAISARGGRTYYADSVKGRYTISLDNAKNTVYLQMTSLKPEDTAVYYCAAAGYITGSDRYDYWGQGTLVTVSS | high polyreactivity
7 | QVQLVESGGGIVQAGGRLRLSCAASGRIFYYNAMGWYRQAPGQERELVAVISRNGGRTYYADSVKGRFTISRDNAKNTVSFQMNSLKPEDTAVYYCAARSAGDRYDYWGQGTQVTVSS | high polyreactivity
8 | QVQLVESGGGIVQAGGRLRLSCAASGSIFLQYTMGWYRQAPGKERELVAAITESDGSTYYADSVKGRFTISRDNAKNTVYLQMNSLKPEDTAVYYCAADVVYFKYWDKYDYWGQGTQVTLSS | low polyreactivity
9 | QVQLVESGGGIVQAGGRLRLSCAASGYIFDIYAMGWNRQAPGKERELDADITRSGGGTYYADSVKGRFTISRDNAKNTVYLQMNSLKPEDTAVYYCAAESYVYGGSDYDYWGQGTQVTVSS | low polyreactivity
10 | QVQLVESGGGIVQAGGSHRLSCAASGRIFGVNAMGWYRQATGKERELVAAISVSGDSTYYADSVKGRFTISRDNAKNTVYLQMNSLKPEDTAVYYCNAGYTFVPADLTDEYYWGQGTQVTVSS | low polyreactivity
11 | QVQLVESGGGIVQAGGSHRLSCAASGRTFYRYAMGWYRQAPGTERELVAAITRRSGNTYYADSVKGRFTISRDNAKNNVYLQMISLKPEDTAVYYCAADPETWSPHYESLGYYWGQGTQVTVSS | high polyreactivity
12 | QVQLVESGGGIVQAGGSLRLICAASGSIFSSYVMGWYRQAPGKERELVAAITSRGGSTYYADSVKGRFTISRDNAKNTVYLQMNSLKPEDTAVYYCAKGGTTWYWSGYRSIYFRYDYWGQGTQVTVSS | high polyreactivity
13 | QVQLVESGGGIVQAGGSLRLRCAASGSTFYVYHMGWDRPAPGKERELVAAISSGAGSTYYADSVKGRFTISRDNAKNTVYLQMNSLKRKIPRSITALLFTVNGGGSRSHDYWAQGTQVTVSS | low polyreactivity
14 | QVQLVESGGGIVQAGGSLRLRWAASGLTSVRNAMGWYRQAPGKERELVAGISWSGGRTYYADSVKGRFTISRDNEKNTVYLQMNSLKPEDTGVYYCNKVRAYYTQEGSWGQGTQVTVSS | high polyreactivity
15 | QVQLVESGGGIVQAGGSLRLSCAASGFICGHYTMGWYRQAPGKERELVAAITTGGRTYYADSVKGRFTISRDNGKNTVYLQMISLKPEDTAVYYCAARGYIWGQGTPVTVSS | high polyreactivity
16 | QVQLVESGGGIVQAGGSLRLSCAASGFIFDSYAMGWYRQAPGKERELVAAITTSGGRTYYADSVKGRFTISRDNAKNTVYLQMNSLKPEDTAVYYCAAKYTARWGFDYWGQGTQVTVSS | high polyreactivity
17 | QVQLVESGGGIVQAGGSLRLSCAASGFIFPDYGMGWYRQAPGKERELVAAISRNGVSTYYADSVKGRFTISRDNAKNTVYLQMNSLKPEDTAVYYCAARYYRIRRVSKSGYYWGQGTQVTVSS | low polyreactivity
18 | QVQLVESGGGIVQAGGSLRLSCAASGFIFSYYVMGWYRQAPGKEREFVAAITYSGTYTYYADSVKGRFTISRDNAKNTVYLQMNSLKPEDTAVYYCAAYSPRYNAHDYWGQGTQVTVSS | high polyreactivity
19 | QVQLVESGGGIVQAGGSLRLSCAASGFNFSLYAMGWYRQAPGKERELVAVIDRRGGNTYYADSVKGRFTISRDNAKNTVYLQMNSLKPEDTAVYSCAADRRFHYDYWGQGTQVTVSS | high polyreactivity
20 | QVQLVESGGGIVQAGGSLRLSCAASGFTFAYYAMGWYRQAPGKERELVAAITRGGGRTFYADSVKGRFTISRDNAKNTVYLQMNSLKPEDTAVYYCAAVKDTTNSRGYGYWGQGTHVTVSS | high polyreactivity
21 | QVQLVESGGGIVQAGGSLRLSCAASGFTFGYYARGWYRQAPGKERELVAAISSRVGRTYYADSVKGRFTISRDNAKNTDYLQMNSLKPEDTAVYYCNTVGKTQWYYYWGQGTQVTVAS | high polyreactivity
22 | QVQLVESGGGIVQAGGSLRLSCAASGFTFSNNVMGGYRQAPGKERELVAAITWSGDGTYYADSVKGRFTISRDNAKNTVYLQMNSLKPEDTAVYYCNARYGKEYDYWGQGTQVTVSS | low polyreactivity

Row | Sequence | polyreactivity (PSR sort gate)
23 | QVQLVESGGGIVQAGGSLRLSCAASGFTFSRYTMGWFRPAPGQERELVAAINRRGGSTYYADSVKGRFTISRDNAKHTVYLQLNSVKPADTAVYYCAATYTVRSGNGIANDYWGQGTQVTVSS | high polyreactivity
24 | QVQLVESGGGIVQAGGSLRLSCAASGFTFTYNTKGWYRQEPGKERELVAAISRSGGSTYYADSVKGRFTISRDNAKNTVYLQLNSLKPEDSAVYYCAKQRRDDNGGYWGLGTQVTVSS | high polyreactivity
25 | QVQLVESGGGIVQAGGSLRLSCAASGFTFWSYAMGWYRPAPGKERELVAAISRGGSTSYADSVKGRFTISRDNAKNTVYLQLNSLKPEDTAVYYCAVVRARAYVYHGFYWGQGTQVTVSS | high polyreactivity
26 | QVQLVESGGGIVQAGGSLRLSCAASGFTLYYYAMGWYRQAPGKERELVAAITSSGTSTYYADSVKGRFTISRDNAKNTVYVQMNSLKPEDTAVYYCAAVSKIYHYRAVRLDDYWGQGTQVTVSS | low polyreactivity
27 | QVQLVESGGGIVQAGGSLRLSCAASGFTYDENAMGWYRQAPGINYSGASTYYAESVKGRFTISRDNAKNTVYLQMNSLKPEDTAVYYCAAEVVAQMNYWGQGTQVTVSS | low polyreactivity
28 | QVQLVESGGGIVQAGGSLRLSCAASGFTYWFYAMGWYRQAPGKERELVAAISRGGSTYYADSVKGRFTFSRDKAKNTVYLQMNSLKPEDTAVYYCAADFVHRGYYYWGQGTQVTVSS | high polyreactivity
29 | QVQLVESGGGIVQAGGSLRLSCAASGGIFFIYTMGWYRQAPGKERELVAAITSTGDTNYADSVKGRFTISRDNAKNTVYLQMNSLKPEDTAVYYCNKDYGTRGKGYDYWGQGTQVTVSS | low polyreactivity
30 | QVQLVESGGGIVQAGGSLRLSCAASGGTFNRYAMGWYRQAPGKERELVAAISNGGGRTYYADSVKGRFTISRDNAKNTVYLQMNSLKPEDNSVYYCAKDLTRTSYRSAFDYWGQGTQVTVSS | high polyreactivity
31 | QVQLVESGGGIVQAGGSLRLSCAASGGTFSRNAMGWYRQAPGKERELVAAINSSGVSTSYADSVKGRFTISRDNEKNTVYLQMNSLKPEDTAVYYCAAETSSAEVDYWGQGTQVTVSS | low polyreactivity
32 | QVQLVESGGGIVQAGGSLRLSCAASGIIFPVYAMGWYRQAPGKERELVAAISRSGGSTYYADSVKGRFTISRDNAKNNVYLQMNSLKPEDTAVYYCAARYVVGYSLSSYGYWGQGTQVTVSS | high polyreactivity
33 | QVQLVESGGGIVQAGGSLRLSCAASGIIFTGNAMGWYIQAPGKERELVAAITSGDTTNYADSVKGRFTISRDNAKNTVYLQMNSLKPEDTAVYYCAKELQVRQAGDYWGQGTQVTVSS | low polyreactivity
34 | QVQLVESGGGIVQAGGSLRLSCAASGIIIDGNAMGWYRQAPGKERELVAAISSRGGSTYYADSVKGRFTISRDYAKNTVYLQMNSLKPEDTAVYYCAAKVRHYYSASNYYYWGQGTQVTVSS | high polyreactivity
35 | QVQLVESGGGIVQAGGSLRLSCAASGIISRVYAMGWYRQAPGKERELVAAISGSGGTTYYADSVKGRFTISRDNAKNTVYLQMNRLKPEDTAVDYCAARYKALYDYWGQGTQVTVSS | high polyreactivity
36 | QVQLVESGGGIVQAGGSLRLSCAASGLIFLDNAMGWYRQAPGKEREFVAAIDSGGSTNYADSVKGRFTISRDNAKNNVYLQMNSLKPEDTAVYYCAAVWIYAPWYYQESVEYYYWGQGTQVSVSS | low polyreactivity
37 | QVQLVESGGGIVQAGGSLRLSCAASGLIFPWTYAMGWYRQAHGKEREFVAAITSSDGSTYYADSVKGRFTISRDNAKNTVYLQMNSLKPEDTAVYYCAAVGWDYDWDYYYWGQGTQVTVSS | high polyreactivity
38 | QVQLVESGGGIVQAGGSLRLSCAASGLTFYGYTMGWYRQAPGKERELVAAISWSGGNTYYADSVKGRFTISRDNAKNTVYLQMNSLKPDDTAVYYCAAVYVYLGVYARYPIWGYYYWGQGTQVTVSS | low polyreactivity
39 | QVQLVESGGGIVQAGGSLRLSCAASGLTIPPNAMGWYRQAPGKEREFVAAITWSGGSTYYADSVKGRFTISRDNAKNTVYLQMNRLKPEDSAVYYCNRVTAYYPTKFDYWGQGTQVTVSS | high polyreactivity
40 | QVQLVESGGGIVQAGGSLRLSCAASGNIFDDNAMGWYRQAPGKDRELVAAITSRGTRTYYADSVKGRFTISRDNAKNTVYLQMNSLKPEDTAVYYCAAGSYYWGQGSQVTVSS | high polyreactivity
41 | QVQLVESGGGIVQAGGSLRLSCAASGNIFHKNAMGWYRQAPGKERELVASISCSGGSTYYADSVKGRFTISRDNAKNTVYLQMNSLKPEDTAVYYCATDAFGYPVNRYALNDYWGQGTQVTVSS | low polyreactivity
42 | QVQLVESGGGIVQAGGSLRLSCAASGNILFSYAMGWYRQAPGKERELVAAISRSGGSTYYADSVKGRFTISRDNAKNTVYLQMNSLKPEDTAVYYCNAGVYYSYSVTEDYWGQGTQVTVSS | high polyreactivity
43 | QVQLVESGGGIVQAGGSLRLSCAASGNTFYAYTMGWYRPAPGKERELVAAISSDGSTNYAVSVKGSVTISRDHAKNTVYLQLNCLKPEDTAVYYCAKYTSSRFEYDYWGHGTQVTVSS | low polyreactivity
